Data as given in US20170267986A1, “GENERATION OF MANNOSE-6-PHOSPHATE CONTAINING RECOMBINANT ALPHA-N-ACETYL GLUCOSAMINIDASE” (SHIRE HUMAN GENETIC THERAPIES, INC., priority 2014, published 2017).
Blank lines part the entries; values can stand above or below the molecule they belong to.

Columns and labels:
rhNaglu = target: T1, rhNaglu (Homo sapiens, UniProt P54802); test: Naglu substrate analysis: hydrolysis of UDP-sugars by rhNaglu, PAD-HPLC; assay type: biochemical; settings: 0.8 mM UDP-GlcNAc, 37° C., 1 hour
T1 construct: The N-terminal 23 amino acids are cleaved as the precursor protein enters the endoplasmic reticulum, resulting in a mature form; made in house; host or cells: human fibrosarcoma HT1080 cell clone over-expressing rhNaglu
T1 sequence (P54802 24-743): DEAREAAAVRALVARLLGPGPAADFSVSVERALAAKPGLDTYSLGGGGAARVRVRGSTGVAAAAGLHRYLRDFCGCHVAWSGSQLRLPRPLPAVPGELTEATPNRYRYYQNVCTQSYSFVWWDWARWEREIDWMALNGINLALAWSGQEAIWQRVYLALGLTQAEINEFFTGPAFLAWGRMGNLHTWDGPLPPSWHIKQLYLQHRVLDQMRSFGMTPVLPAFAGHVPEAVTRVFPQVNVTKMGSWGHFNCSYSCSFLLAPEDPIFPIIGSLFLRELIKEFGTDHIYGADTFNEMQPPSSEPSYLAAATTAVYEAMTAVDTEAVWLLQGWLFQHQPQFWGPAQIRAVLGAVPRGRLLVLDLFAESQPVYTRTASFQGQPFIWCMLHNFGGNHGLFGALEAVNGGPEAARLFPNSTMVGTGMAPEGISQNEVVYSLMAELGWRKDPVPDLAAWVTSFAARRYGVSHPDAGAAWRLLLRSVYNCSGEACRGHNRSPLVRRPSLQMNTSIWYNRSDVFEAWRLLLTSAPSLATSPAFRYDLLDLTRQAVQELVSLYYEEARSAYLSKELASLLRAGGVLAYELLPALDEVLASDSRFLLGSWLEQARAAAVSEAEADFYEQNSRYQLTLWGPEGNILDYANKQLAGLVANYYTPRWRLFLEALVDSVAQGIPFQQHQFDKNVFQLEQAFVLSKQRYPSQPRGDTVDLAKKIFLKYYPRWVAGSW
Method: Recombinant human Naglu was co-incubated with uridine diphosphate N-acetylglucosamine (UDP-GlcNAc) or uridine diphosphate N-acetyl galactosamine (UDP-GalNAc). UDP-GlcNAc, GlcNAc (N-acetylglucosamine) and UDP-GalNAc were detected using PAD-HPLC (Pulsed Amperometric Detection-High Pressure Liquid Chromatography) that was modified after Chavaroche et al. 2011.
Recombinant human Naglu was dialyzed into Tris buffer (40 mM Tris pH 7.15, 100 mM NaCl, 4 mM MgCl2, and 4 mM MnCl2) and concentrated with VivaSpin® sample concentrators having a 30 kDa cut-off (Viva Products, Inc., Littleton, Mass.). […]
Samples were then subjected to centrifugation at 10,000 rpm, and the resulting supernatants were loaded on PA10 columns and detected by PAD-HPLC (Pulsed Amperometric Detection-High Pressure Liquid Chromatography) (Dionex ICS-3000 Ion Chromatography System (Thermo Fisher Scientific, Inc., Sunnyvale, Calif.)). […] The peak areas for the eluted UDP-GlcNAc were measured, and the reductions of the area under the curve (AUC) in response to increased concentrations of rhNaglu were determined (FIG. 1A). A new peak at 10.7 minutes was detected on the chromatograms of samples treated with concentrations of rhNaglu of 23.4 μg/ml and above. […] The peak areas for the eluted GlcNAc were measured, and the increases of the AUC in response to increased concentrations of rhNaglu were determined (FIG. 1B). […]

CI-M6PR = target: T2, CI-M6PR (Homo sapiens, UniProt P11717); test: Plate based sCI-M6PR binding assay (ELISA); settings: treated with sGNPT under the same conditions as Naglu-Kif
T2 construct: the secreted sCI-M6PR was purified from the tissue culture medium; made in house
Method: (1) Generation of sCI-M6PR (soluble CI-M6PR)—Full length M6PR was expressed in genetically modified tissue culture cells, and the secreted sCI-M6PR was purified from the tissue culture medium using an aminophenyl-M6P conjugated resin (Beljaars et al., 1999). N-terminal sequencing and LC/MS/MS analysis of the obtained protein confirmed the amino acid sequence of the sCI-M6PR, and MALDI analysis confirmed that its molecular mass was 279,492 Da.
100 μl of sCI-M6PR(2.5 μg/ml) in DPBS were coated on MaxiSorp® Nunc-Immuno flat-bottom 96-well plates (Thermo Fisher Scientific, Inc., Sunnyvale, Calif.). After incubation for 1 hour at 37° C., the plates was washed with ELISA wash buffer (0.1% Tween-20 in DPBS). sCI-M6PR coated wells were blocked with 300 μl ELISA blocking buffer (DPBS, 2% BSA, 0.05% Tween 20) at 37° C. for 1 hour. Appropriate dilutions of sGNPT-modified Naglu-Kif (and rhNaglu as control) were made in blocking buffer and added to the wells. After 1 hour incubation at 37° C., the plates were washed with ELISA wash buffer, and 100 μl of HRP-conjugated rabbit anti-Naglu polyclonal antibody #2957 diluted in blocking buffer were added. After 1 hour incubation at 37° C., the plates was washed again with ELISA wash buffer. The ELISA was developed using TMB peroxidase substrate solution (KPL, Inc., Gaithersburg, Mass.) by following the manufacturer's protocol.
sGNPT transfers the phospho-GlcNAc group from UDP-GlcNAc to mannose sugar, and the resulting mannose-6-phosphate-GlcNAc is called the Capped-M6P. During the normal intracellular glycosylation process, the decapping enzyme (N-acetylglucosamine 1-phosphodiester α-N-acetyglucosaminidase) removes the GlcNAc from the Capped-M6P, to generate M6P. But without decapping, the Capped-M6P can also bind to CI-M6PR. Capped-M6P binds to domain 5 of CI-M6PR rather than to domain 3 or 9, as M6P does (Bohnsack et al. 2009). The amount of Capped-M6P on Naglu-Kif can be indirectly evaluated using a CI-M6PR plate binding assay. In this binding assay the affinity with which Naglu-Kif bound to CI-M6PR increased in proportion to the amount of sGNPT used (35 μg, 70 μg and 140 (corresponding to about 4.2 μM) (green, red and empty circle in FIG. 8, respectively)) to modify Naglu-Kif and thus the extent of Capped-M6P found on Naglu-Kif (FIG. 8). […] These binding reactions were repeated in two different buffer systems, i.e., in a sodium acetate buffer (40 mM NaAc pH 6.5, 10 mM MnCl2, 10 mM MgCl2) and in a Tris buffer (50 mM Tris pH 7.4, 10 mM MnCl2, 10 mM MgCl2), which gave similar results. Contrary to Naglu-Kif, rhNaglu was not phosphorylated by sGNPT under the same conditions due to the lack of high-mannose glycans.

[1] = target: T3, Naglu-Kif, a high-mannose-containing recombinant human Naglu (before sGNPT modification)
T3 chain: T1 sequence (P54802 24-743)

[2] = target: T4, Recombinant human Naglu (rhNaglu)
T4 chain: T1 sequence (P54802 24-743)

minimum rhNaglu concentration required for detection of hydrolysis of UDP-GlcNAc (rhNaglu): 23.4 µg/mL
binding to CI-M6PR (CI-M6PR): did not bind
B1: rhNaglu: recombinant human alpha-N-acetyl-glucosaminidase purified from human fibrosarcoma HT1080 cells engineered to over-express it (protein)
chain: T1 sequence (P54802 24-743)

B2: Soluble human N-acetylglucosamine-1-phosphotransferase (sGNPT), HPC4 tagged (protein)
chain: DEDQVDPRLIDGKWSRDQYHVLFDSYRDNIAGKSFQNRLCLPMPIDVVYTWVNGTDLELLKELQQVREQMEEEQKAMREILGKNTTEPTKKSEKQLECLLTHCIKVPMLVLDPALPANITLKDLPSLYPSFHSASDIFNVAKPKNPSTNVSVVVFDSTKDVEDAHSGLLKGNSRQTVWRGYLTTDKEVPGLVLMQDLAFLSGFPPTFKETNQLKTKLPENLSSKVKLLQLYSEASVALLKLNNPKDFQELNKQTKKNMTIDGKELTISPAYLLWDLSAISQSKQDEDISASRFEDNEELRYSLRSIERHAPWVRNIFIVTNGQIPSWLNLDNPRVTIVTHQDVFRNLSHLPTFSSPAIESHIHRIEGLSQKFIYLNDDVMFGKDVWPDDFYSHSKGQKVYLTWPVPNCAEGCPGSWIKDGYCDKACNNSACDWDGGDCSGNSGGSRYIAGGGGTGSIGVGQPWQFGGGINSVSYCNQGCANSWLADKFCDQACNVLSCGFDAGDCGQDHFHELYKVILLPNQTHYIIPKGECLPYFSFAEVAKRGVEGAYSDNPIIRHASIANKWKTIHLIMHSGMNATTIHFNLTFQNTNDEEFKMQITVEVDTREGPKLNSTAQKGYENLVSPITLLPEAEILFEDIPKEKRFPKFKRHDVNSTRRAQEEVKIPLVNISLLPKDAQLSLNTLDLQLEHGDITLKGYNLSKSALLRSFLMNSQHAKIKNQAIITDETNDSLVAPQEKQVHKSILPNSLGVSERLQRLTFPAVSVKVNGHDQGQNPPLDLETTARFRVETHTQKTIGGNVTKEKPPSLIVPLESQMTKEKKITGKEKENSRMEENAENHIGVTEVLLGRKLQHYTDSYLGFLPWEKKKYFQDLLDEEESLKTQLAYFTDSKNRARYKRDTFADSLRYVNKILNSKFGFTSRKVPAHMPHMIDRIVMQELQDMFPEEFDKTSFHKVRHSEDMQFAFSYFYYLMSAVQPLNISQVFDEVDTDQSGVLSDREIRTLATRIHELPLSLQDLTGLEHMLINCSKMLPADITQLNNIPPTQESYYDPNLPPVTKSLVTNCKPVTDKIHKAYKDKNKYRFEIMGEEEIAFKMIRTNVSHVVGQLDDIRKNPRKFVCLNDNIDHNHKDAQTVKAVLRDFYESMFPIPSQFELPREYRNRFLHMHELQEWRAYRDKL
pmol M6P/pmol Naglu Kif (M6P monosaccharide quantitation by PAD-HPLC after in vitro phosphorylation; +70 ug GNPT, 50 mM Tris pH 7.4, 10 mM MnCl2, 10 mM MgCl2) (pmol M6P/pmol Naglu Kif) [1]: 1.45
pmol M6P/pmol Naglu Kif (M6P monosaccharide quantitation by PAD-HPLC after in vitro phosphorylation; +70 ug GNPT, 50 mM sodium acetate pH 6.5, 20 mM MnCl2) (pmol M6P/pmol Naglu Kif) [1]: 0.12
pmol M6P/pmol Naglu Kif (M6P monosaccharide quantitation by PAD-HPLC after in vitro phosphorylation; +140 ug GNPT, 50 mM sodium acetate pH 6.5, 20 mM MnCl2) (pmol M6P/pmol Naglu Kif) [1]: 0.64
in vitro phosphorylation by sGNPT [2]: rhNaglu was not phosphorylated by sGNPT under the same conditions due to the lack of high-mannose glycans
